These are literature values, as cited in PMC8495968, “Towards optimizing peptide-based inhibitors of protein–protein interactions: predictive saturation variation scanning (PreSaVS)” (RSC Chemical Biology, 2021).

This data set addresses SIM (RanBP2) 2705-2717 (Homo sapiens) (UniProt P49792). The data set is described as follows: fluorescence anisotropy.

Sequence of SUMO-1 (P63165 2-97): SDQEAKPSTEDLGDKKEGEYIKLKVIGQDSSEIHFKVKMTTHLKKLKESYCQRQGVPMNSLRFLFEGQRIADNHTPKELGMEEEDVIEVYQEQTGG

SUMO-1 (from UniProt P63165): the Kd (as a rule, a measure of binding affinity in units of concentration) is 1500 nM.
